According to EP4725501A1:
Where two headings read alike, the source gives them in different places.

Key:
[1] = target: MASP3 in Factor D depleted human plasma (human) (UniProt P48740); assay: cell-based or functional assay
human MASP3-His (human) [2] = target: human MASP3-His (human) (UniProt P48740); assay: cell-based or functional assay
[3] = target: MASP3 in Factor D depleted human plasma (human) (UniProt P48740); assay: cell-based or functional assay; remark: listed apart in the source
human MASP3-His (human) [4] = target: human MASP3-His (human) (UniProt P48740); assay: ELISA; antigen coated 0.1 ug/well, antibody titrated, goat anti-human IgG-HRP
mouse MASP3-His (mouse) = mouse MASP3-His (mouse) (UniProt P98064); assay: as above
Chain of mouse MASP3-His (mouse) (P98064 other isoform, or with tags, fused parts or gaps): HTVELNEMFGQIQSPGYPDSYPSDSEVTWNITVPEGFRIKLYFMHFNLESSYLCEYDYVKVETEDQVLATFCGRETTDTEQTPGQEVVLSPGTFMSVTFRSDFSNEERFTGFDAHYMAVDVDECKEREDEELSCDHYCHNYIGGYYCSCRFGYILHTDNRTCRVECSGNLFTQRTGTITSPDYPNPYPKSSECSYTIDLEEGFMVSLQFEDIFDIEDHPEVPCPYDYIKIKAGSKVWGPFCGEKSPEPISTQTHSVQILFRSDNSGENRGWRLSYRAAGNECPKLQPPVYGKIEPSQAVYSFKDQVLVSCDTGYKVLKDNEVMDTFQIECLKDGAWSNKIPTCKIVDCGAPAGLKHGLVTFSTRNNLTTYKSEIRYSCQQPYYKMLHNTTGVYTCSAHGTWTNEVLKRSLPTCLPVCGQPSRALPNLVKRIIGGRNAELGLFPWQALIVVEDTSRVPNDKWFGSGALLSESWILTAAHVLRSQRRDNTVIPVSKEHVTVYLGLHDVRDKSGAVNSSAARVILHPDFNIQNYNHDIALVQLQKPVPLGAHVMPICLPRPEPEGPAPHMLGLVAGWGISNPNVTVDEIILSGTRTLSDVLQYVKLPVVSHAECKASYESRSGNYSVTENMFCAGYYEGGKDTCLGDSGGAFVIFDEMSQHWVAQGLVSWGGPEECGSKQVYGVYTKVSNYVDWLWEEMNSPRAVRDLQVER

[5] = target: monkey MASP3-His (monkey); assay: as above

Chain of human MASP3-His (human) (P48740 other isoform, or with tags, fused parts or gaps): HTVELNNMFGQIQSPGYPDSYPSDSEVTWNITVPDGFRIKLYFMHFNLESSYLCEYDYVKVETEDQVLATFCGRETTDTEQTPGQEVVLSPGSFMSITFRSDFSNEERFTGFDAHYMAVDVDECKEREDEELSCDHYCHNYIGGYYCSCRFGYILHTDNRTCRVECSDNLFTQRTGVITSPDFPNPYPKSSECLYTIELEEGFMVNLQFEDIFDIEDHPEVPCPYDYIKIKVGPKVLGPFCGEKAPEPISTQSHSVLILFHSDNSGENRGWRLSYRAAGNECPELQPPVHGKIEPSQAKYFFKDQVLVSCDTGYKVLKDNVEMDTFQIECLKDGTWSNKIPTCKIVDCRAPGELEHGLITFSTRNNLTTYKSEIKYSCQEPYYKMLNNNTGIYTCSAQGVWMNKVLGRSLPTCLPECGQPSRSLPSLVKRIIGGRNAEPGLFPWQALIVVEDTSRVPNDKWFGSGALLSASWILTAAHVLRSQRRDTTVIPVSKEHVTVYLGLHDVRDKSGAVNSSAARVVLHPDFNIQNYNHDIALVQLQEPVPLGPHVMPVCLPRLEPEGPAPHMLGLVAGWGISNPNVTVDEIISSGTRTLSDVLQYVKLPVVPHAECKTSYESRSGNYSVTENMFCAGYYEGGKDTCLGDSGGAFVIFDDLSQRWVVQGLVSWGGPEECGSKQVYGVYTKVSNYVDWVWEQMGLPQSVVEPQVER
Chain of MASP3 in Factor D depleted human plasma (human) (P48740 other isoform, or with tags, fused parts or gaps): as above

IC50 (nM), inhibition of MASP3 enzyme activity (cleavage of fluorescent tripeptide Boc-Val-Pro-Arg-AMC) (human MASP3-His (human) [2]): 200 nM | EC50 (human MASP3-His (human) [4]): 0.98 nM | EC50 (mouse MASP3-His (mouse)): 5.33 nM | EC50 [5]: 2.97 nM
Substance: OMS906 (antibody)
Inhibit hemolysis IC50 [1]: 13 nM | Inhibit hemolysis IC50 [3]: 17.1 nM
